The target in data set [1] is GST-Ras [GST: P08515].
Data set [2] concerns the target Endogenous Ras of HEK-293T cells.

GST-Ras [GST: P08515], sequence (P08515 whole entry, looked up): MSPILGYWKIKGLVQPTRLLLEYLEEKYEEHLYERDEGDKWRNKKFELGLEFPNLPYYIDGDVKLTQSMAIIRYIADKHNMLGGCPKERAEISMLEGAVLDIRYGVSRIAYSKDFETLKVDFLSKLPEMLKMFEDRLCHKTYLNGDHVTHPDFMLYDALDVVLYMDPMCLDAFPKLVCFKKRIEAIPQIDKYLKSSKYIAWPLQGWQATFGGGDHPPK

B1: Flag-tagged full-length GRF4 (protein)
chain: MKPLAIPANHGVMGQQEKHSLPADFTKLHLTDSLHPQVTHVSSSHSGCSITSDSGSSSLSDIYQATESEAGDMDLSGLPETAVDSEDDDDEEDIERASDPLMSRDIVRDCLEKDPIDRTDDDIEQLLEFMHQLPAFANMTMSVRRELCAVMVFAVVERAGTIVLNDGEELDSWSVILNGSVEVTYPDGKAEILCMGNSFGVSPTMDKEYMKGVMRTKVDDCQFVCIAQQDYCRILNQVEKNMQKVEEEGEIVMVKEHRELDRTGTRKGHIVIKGTSERLTMHLVEEHSVVDPTFIEDFLLTYRTFLSSPMEVGKKLLEWFNDPSLRDKVTRVVLLWVNNHFNDFEGDPAMTRFLEEFENNLEREKMGGHLRLLNIACAAKAKRRLMTLTKPSREAPLPFILLGGSEKGFGIFVDSVDSGSKATEAGLKRGDQILEVNGQNFENIQLSKAMEILRNNTHLSITVKTNLFVFKELLTRLSEEKRNGAPHLPKIGDIKKASRYSIPDLAVDVEQVIGLEKVNKKSKANTVGGRNKLKKILDKTRISILPQKPYNDIGIGQSQDDSIVGLRQTKHIPTALPVSGTLSSSNPDLLQSHHRILDFSATPDLPDQVLRVFKADQQSRYIMISKDTTAKEVVIQAIREFAVTATPDQYSLCEVSVTPEGVIKQRRLPDQLSKLADRIQLSGRYYLKNNMETETLCSDEDAQELLRESQISLLQLSTVEVATQLSMRNFELFRNIEPTEYIDDLFKLRSKTSCANLKRFEEVINQETFWVASEILRETNQLKRMKIIKHFIKIALHCRECKNFNSMFAIISGLNLAPVARLRTTWEKLPNKYEKLFQDLQDLFDPSRNMAKYRNVLNSQNLQPPIIPLFPVIKKDLTFLHEGNDSKVDGLVNFEKLRMIAKEIRHVGRMASVNMDPALMFRTRKKKWRSLGSLSQGSTNATVLDVAQTGGHKKRVRRSSFLNAKKLYEDAQMARKVKQYLSNLELEMDEESLQTLSLQCEPATNTLPKNPGDKKPVKSETSPVAPRAGSQQKAQSLPQPQQQPPPAHKINQGLQVPAVSLYPSRKKVPVKDLPPFGINSPQALKKILSLSEEGSLERHKKQAEDTISNASSQLSSPPTSPQSSPRKGYTLAPSGTVDNFSDSGHSEISSRSSIVSNSSFDSVPVSLHDERRQRHSVSIVETNLGMGRMERRTMIEPDQYSLGSYAPMSEGRGLYATATVISSPSTEELSQDQGDRASLDAADSGRGSWTSCSSGSHDNIQTIQHQRSWETLPFGHTHFDYSGDPAGLWASSSHMDQIMFSDHSTKYNRQNQSRESLEQAQSRASWASSTGYWGEDSEGDTGTIKRRGGKDVSIEAESSSLTSVTTEETKPVPMPAHIAVASSTTKGLIARKEGRYREPPPTPPGYIGIPITDFPEGHSHPARKPPDYNVALQRSRMVARSSDTAGPSSVQQPHGHPTSSRPVNKPQWHKPNESDPRLAPYQSQGFSTEEDEDEQVSAV
For the protein B1, the “fold Ras activation in vitro (bound 32P-GTP, 30 min, against Ras without GRFs set to 1)” value in data set [1] was “˜2.9 fold activation in 30 min”. The “active Ras (Ras-GTP) precipitated with GST-Raf1-RBD from HEK-293T lysates” value in data set [2] is on record as “heterologous expression of GRF4 in HEK-293T cells led to a weak activation of endogenous Ras, which was greatly enhanced following stimulation of cells with ... 8-Br-cAMP”.

B2: Isolated CDC25 domain of GRF4 (protein)
chain: SLLQLSTVEVATQLSMRNFELFRNIEPTEYIDDLFKLRSKTSCANLKRFEEVINQETFWVASEILRETNQLKRMKIIKHFIKIALHCRECKNFNSMFAIISGLNLAPVARLRTTWEKLPNKYEKLFQDLQDLFDPSRNMAKYRNVLNSQNLQPPIIPLFPVIKKDLTFLHEGNDSKVDGLVNFEKLRMIAKEIRHVGRMASVNMDPALMFRTRKKKWRSLGSLSQGSTNATVLDVAQTGGHKKRVRRSSFLNAKKLYEDAQMARKVKQYLSNLELEMDEESLQTLSLQCEPATNT
For the protein B2, the “Ras activation in vitro (GEF assay)” value in data set [1] was “we were unable to demonstrate significant activation of Ras by the isolated CDC25 domain of GRF4”.

For the origin of these results see patent US20020143164.
